Assay results as given in PMC6432644.

Molecular target: Hsp90AA1-MC, HA-tagged
Assay: native gel or EMSA

Question: How did the stoichiometry N turn out when “Hsp90AA1-MC, HA-tagged (domain or fragment)” was run?
Answer: 2
